Results reported in the supplement of paper PMC9112550, “Optimization of the antimicrobial peptide Bac7 by deep mutational scanning” (BMC Biology, 2022).

System: Escherichia coli TOP10
Assay: shrunken log2 fold change of peptide-encoding DNA abundance (4.5 h post-induction vs induction); higher = less antimicrobial activity (less host growth inhibition)
Conditions: time post-induction: 4.5 h; library: site-saturation at positions 5, 18, 19, 20
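Further: peptides expressed intracellularly from a pBAD plasmid library in pooled LB shake-flask culture, induced with 0.3% L-arabinose, DNA abundance read by NGS, three biological replicates, DESeq2 with apeglm shrinkage.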

| Sequence | shrunken log2 fold change |
| --- | --- |
| RRIRTRPPRLPRPRPRPMPDPRP | -0.0705 |
| RRIRTRPPRLPRPRPRPCYCPRP | -0.76 |
| RRIRRRPPRLPRPRPRPYTQPRP | -0.141 |
| RRIRHRPPRLPRPRPRPGRWPRP | 0.413 |
| RRIRCRPPRLPRPRPRPDQLPRP | 0.101 |
| RRIRGRPPRLPRPRPRPENFPRP | 0.0598 |
| RRIRTRPPRLPRPRPRPYLFPRP | -0.71 |
| RRIRTRPPRLPRPRPRPIDAPRP | -0.0859 |
| RRIRVRPPRLPRPRPRPFEAPRP | -0.193 |
| RRIRNRPPRLPRPRPRPRIGPRP | 0.0705 |
| RRIRARPPRLPRPRPRPGCYPRP | -0.00374 |
| RRIRARPPRLPRPRPRPPSYPRP | 0.0336 |
| RRIRTRPPRLPRPRPRPRMNPRP | -0.133 |
| RRIRIRPPRLPRPRPRPHLHPRP | -0.784 |
| RRIRYRPPRLPRPRPRPDKHPRP | -0.692 |
| RRIRARPPRLPRPRPRPQNNPRP | -0.29 |
| RRIRLRPPRLPRPRPRPTQSPRP | 0.144 |
| RRIRYRPPRLPRPRPRPYHPPRP | -0.152 |
| RRIRDRPPRLPRPRPRPGFIPRP | -0.202 |
| RRIRWRPPRLPRPRPRPHHEPRP | -0.262 |
| RRIRVRPPRLPRPRPRPMTVPRP | 0.116 |
| RRIRMRPPRLPRPRPRPEKWPRP | 1.56 |
| RRIRCRPPRLPRPRPRPHAHPRP | -0.182 |
| RRIRQRPPRLPRPRPRPFNQPRP | 0.00312 |
| RRIRFRPPRLPRPRPRPQGPPRP | 0.0563 |

| Sequence | shrunken log2 fold change |
| --- | --- |
| RRIRFRPPRLPRPRPRPVVYPRP | -0.127 |
| RRIRERPPRLPRPRPRPSKVPRP | -0.365 |
| RRIRIRPPRLPRPRPRPSWKPRP | -0.242 |
| RRIRSRPPRLPRPRPRPKPYPRP | -0.153 |
| RRIRCRPPRLPRPRPRPELVPRP | 0.423 |
| RRIRVRPPRLPRPRPRPTQEPRP | 0.124 |
| RRIRQRPPRLPRPRPRPMPYPRP | -0.0574 |
| RRIRWRPPRLPRPRPRPHMNPRP | -0.667 |
| RRIRPRPPRLPRPRPRPRYFPRP | 0.0508 |
| RRIRIRPPRLPRPRPRPWCTPRP | -0.757 |
| RRIRHRPPRLPRPRPRPEYLPRP | 0.0871 |
| RRIRTRPPRLPRPRPRPYCDPRP | -0.512 |
| RRIRARPPRLPRPRPRPEYWPRP | 0.515 |
| RRIRWRPPRLPRPRPRPSQYPRP | -0.41 |
| RRIRFRPPRLPRPRPRPWMVPRP | -0.227 |
| RRIRERPPRLPRPRPRPGPSPRP | -0.109 |
| RRIRVRPPRLPRPRPRPKFVPRP | 0.11 |
| RRIRFRPPRLPRPRPRPYNSPRP | -0.136 |
| RRIRNRPPRLPRPRPRPVWCPRP | -0.226 |
| RRIRQRPPRLPRPRPRPTECPRP | 0.0119 |
| RRIRERPPRLPRPRPRPWIFPRP | -0.101 |
| RRIRHRPPRLPRPRPRPQTYPRP | -0.193 |
| RRIRMRPPRLPRPRPRPLTRPRP | 0.608 |
| RRIRFRPPRLPRPRPRPMIVPRP | -0.105 |
| RRIRARPPRLPRPRPRPHEPPRP | 0.00298 |
